Test results: patent US20210246224A1 (Regeneron, published 2021)

B1: H4H25017D (bispecific antibody, IgG4, V domains shown)
VH 1: QVQLVQSGPEVKKPGASVKVSCKASGYTFPNFGISWVRQAPGQGLEWMGWIAPYNVATNYAPKLQGRVTMTTDTSTSTAYMELRSLRSDDTAVYYCARWGAGYMGYYYYGMDVWGQGTTVTVSS
VH 2: EVQLVESGGGLVQPGGSLRLSCAASGFTFSTYVMSWVRQAPGKGPEWVSGISGRTGTTYYADSVKGRFTISRDNSKNTLYLQMNSLRAEDTAVYYCASRITAAGRGYYYYYGMDVWGRGTTVTVSS
VL: not shown
notes: Wild-type kappa CL and a modified (chimeric) IgG4 CH domain as set forth in US20140243504A1; also called bispecific anti-HER2xAPLP2 antibody
B2: H4H25018D (bispecific antibody, IgG4, V domains shown)
VH 1: QVQLQESGPGLVKPSQTLSLTCTVSGGSISSGHYFWSWIRQHPGKGLEWIGYIFYSGSTHYNPSLKSRLSISVDTSKNQFSLRLTSVTAADTAVYYCAREEGDYNFWDVDYVPGHFDYWGQGTLVTVSS
VH 2: EVQLVESGGGLVQPGRSLRLSCVASGFTFADYAMHWVRQAPGKGLEWVSGISWNSGNIDYADSVKGRFTISRDNAKNSLYLQMNSLRTEDTALYYCAKVRIVVAGYYYYYYGMDVWGQGTTVTVSS
VL: not shown
notes: as for B1
B3: H4H25019D (bispecific antibody, IgG4, V domains shown)
VH 1: B1 VH 1
VH 2: B2 VH 2
VL: not shown
notes: as for B1
B4: H4H25020D (bispecific antibody, IgG4, V domains shown)
VH 1: B2 VH 1
VH 2: QVQLVQSGVEVKKPGASVKVSCKASGYTFTDYGISWVRQAPGQGLEWMGWISAHNGNTNYAQKLQGRVTMTTDTSTNTAYMELRSLRSDDTAVYYCARRNWKYFDYWGQGTLVTVSS
VL: not shown
notes: as for B1
B5: H4H25021D (bispecific antibody, IgG4, V domains shown)
VH 1: B1 VH 1
VH 2: B4 VH 2
VL: not shown
notes: as for B1

molecular target: T1, human HER2 expressed on cells (cancer cell lines and normal primary cultures) (human, UniProt P04626 23-1255); experiment: imaging, Alexa647-labelled antibody 10 ug/mL at 4 C on BT483 cells; signal per nuclei, normalised to the highest cell line
T1 construct: Endogenous HER2 of the cell lines; the same cells also express APLP2; also called human epidermal growth factor receptor 2
Procedure: (§1) To test the ability of bispecific anti-HER2xAPLP2 molecules described herein to bind to cells lines expressing various levels of HER2, a high content imaging assay was performed. […] Cells were plated on collagen-coated, black wall, 96-well, optical plates (Greiner, Cat #655936) at 2.5×10⁵ cells per well in their appropriate culture media, which is described for each cell line/culture in Table 6, and incubated overnight at 37° C. in 5% CO₂.
(§2) After, cells were washed twice with cold DMEM+10% FBS. […] After, the solution was replaced with DPBS/CM. Binding of the bispecific antibodies to each of the cell types was measured using an Image Xpress^Micro automatic microscope (Molecular Devices). […] (See also FIG. 2.)
(§3) The signal of antibody binding (mean intensity fluorescence of Alexa647) divided by the nuclei signals was determined for each condition using MetaXpress software (Molecular Devices). Values were normalized to the cell line displaying the highest antibody binding signal.

Going from B1 to B2, the “Antibody bound (% of highest)” value falls from 22% to 16%.

Compared with B3, B4 is lower in “Antibody bound (% of highest)” value: 22% for the first, 15% for the second.

In the case of B5, the “Antibody bound (% of highest)” value is reported as 22%.

molecular target: T2, human HER2 extracellular domain expressed with a C-terminal myc-myc-hexahistidine tag (human, UniProt P04626 23-652); experiment: SPR (Biacore 4000), antibody captured on anti-human Fc, hHER2-MMH injected, 37 C
T2 construct: also called hHER2-MMH; HER2.mmh
Procedure: (§4) Equilibrium dissociation constants (KD values) for HER2 and APLP2 binding to purified anti-HER2xAPLP2 bispecific and parental antibodies were determined using a real-time surface plasmon resonance biosensor using a Biacore 4000 instrument. The Biacore sensor surface was first derivatized by amine coupling with a monoclonal mouse anti-human Fc antibody (GE, Cat #BR-1008-39) to capture anti-HER2xAPLP2 bispecific monoclonal antibodies. […] Kinetic association rate constant (ka) and dissociation rate constant (kd) were determined by fitting the real-time sensorgrams to a 1:1 binding model using Scrubber 2.0c curve fitting software. Binding dissociation equilibrium constants (KD) and dissociative half-lives (t1/2) were calculated from the kinetic rate constants as: […]

B1 and B2 are within 1.5-fold of each other in Kd: 4.85 nM for the first, 4.21 nM for the second.

Binder B4 has a Kd of 4.2 nM.

B1 was tested, and the koff was 0.0009 s⁻¹.

B1 gave a kon of 186000 M⁻¹ s⁻¹.

B1 and B3 are within 1.5-fold of each other in t½: 13 min for the first, 11 min for the second.

molecular target: T1, human HER2 expressed on cells (cancer …); experiment: imaging, Alexa647-labelled antibody 10 ug/mL at 4 C on NLE cells; signal per nuclei, normalised to the highest cell line
Procedure: as §2, §3

First: B1
Second: B2
The “Antibody bound (% of highest)” value of the first is higher: 4% for the first, 3% for the second.

First: B3
Second: B4
The “Antibody bound (% of highest)” value of the first is lower: 2% for the first, 6% for the second.

With B5 the “Antibody bound (% of highest)” value was 7%.

molecular target: T1, human HER2 expressed on cells (cancer …); experiment: imaging, Alexa647-labelled antibody on MDA-MB-361 cells at 4 C; competitors hHER2-MMH + hAPLP2-MMH
Procedure: (§5) For the assay, cells were plated on collagen-coated, black wall, 96-well, optical plates (Greiner, Cat #655936) at 2.5×10⁵ cells per well in their appropriate culture media (described in previous examples), and incubated overnight at 37° C. in 5% CO₂. The next day, the cells were placed in refrigeration at 4° C. for 30 minutes. […] To each antibody solution, either PBS alone, human HER2 extracellular domain expressed with a C-terminal myc-myc-hexahistidine tag (hHER2-MMH; SEQ ID NO: 53) alone, human APLP2 extracellular domain expressed with a C-terminal myc-myc-hexahistidine tag (hAPLP2-MMH; SEQ ID NO: 54) alone, or the combination of hHER2-MMH and hAPLP2-MMH was added at a concentration of […]. After incubation, and removal of culture media, 50 μL/well of the bispecific antibody and soluble protein solutions were added to the cells for 30 minutes at 4° C. The cells were subsequently washed with 150 μL/well of DMEM containing 10% FBS at 4° C. for 10 minutes. […] The fixing buffer was then removed, 100 uL of DPBS/CM was added and allowed to incubate for approximately 20 minutes at room temperature prior to image acquisition. Binding of the bispecific antibodies to each of the cell types was measured using an Image Xpress^Micro automatic microscope (Molecular Devices). Data acquired was analyzed using MetaXpress software (Molecular Devices). […]

In the case of B1, the “Bispecific antibody signal (Fold over blank)” value is reported as 5 fold over blank.

molecular target: T1, human HER2 expressed on cells (cancer …); experiment: imaging, Alexa647-labelled antibody 10 ug/mL at 4 C on MDA-MB-468 cells; signal per nuclei, normalised to the highest cell line
Procedure: as §2, §3

B1 and B2 are the same in “Antibody bound (% of highest)” value: 1% for the first, 1% for the second.

B3 and B4 are the same in “Antibody bound (% of highest)” value: 1% for the first, 1% for the second.

With B5 the “Antibody bound (% of highest)” value was 1%.

molecular target: T1, human HER2 expressed on cells (cancer …); experiment: imaging, Alexa647-labelled antibody on MDA-MB-361 cells at 4 C; competitor hAPLP2-MMH
Procedure: as §5

With B1 the “Bispecific antibody signal (Fold over blank)” value was 13 fold over blank.

molecular target: T1, human HER2 expressed on cells (cancer …); experiment: imaging, Alexa647-labelled antibody 10 ug/mL at 4 C on MDA-MB-453 cells; signal per nuclei, normalised to the highest cell line
Procedure: as §2, §3

Going from B1 to B2, the “Antibody bound (% of highest)” value falls from 31% to 25%.

Compared with B3, B4 is lower in “Antibody bound (% of highest)” value: 30% for the first, 24% for the second.

With B5 the “Antibody bound (% of highest)” value was 28%.

molecular target: T1, human HER2 expressed on cells (cancer …); experiment: imaging, Alexa647-labelled antibody 10 ug/mL at 4 C on MCF7 cells; signal per nuclei, normalised to the highest cell line
Procedure: as §2, §3

Going from B1 to B2, the “Antibody bound (% of highest)” value falls from 9% to 6%.

Going from B3 to B4, the “Antibody bound (% of highest)” value falls from 7% to 5%.

In the case of B5, the “Antibody bound (% of highest)” value is reported as 7%.

molecular target: T1, human HER2 expressed on cells (cancer …); experiment: imaging, Alexa647-labelled antibody 10 ug/mL at 4 C on NBE cells; signal per nuclei, normalised to the highest cell line
Procedure: as §2, §3

Compared with B1, B2 is lower in “Antibody bound (% of highest)” value: 10% for the first, 9% for the second.

First: B3
Second: B4
The “Antibody bound (% of highest)” value of the first is lower: 6% for the first, 8% for the second.

B5 was tested, and the “Antibody bound (% of highest)” value was 8%.

molecular target: T1, human HER2 expressed on cells (cancer …); experiment: imaging, Alexa647-labelled antibody 10 ug/mL at 4 C on JIMT-1 cells; signal per nuclei, normalised to the highest cell line
Procedure: as §2, §3

B1 and B2 are the same in “Antibody bound (% of highest)” value: 17% for the first, 17% for the second.

First: B3
Second: B4
The “Antibody bound (% of highest)” value of the first is lower: 15% for the first, 18% for the second.

With B5 the “Antibody bound (% of highest)” value was 17%.

molecular target: T1, human HER2 expressed on cells (cancer …); experiment: imaging, Alexa647-labelled antibody 10 ug/mL at 4 C on MDA-MB-361 cells; signal per nuclei, normalised to the highest cell line
Procedure: as §2, §3

Compared with B1, B2 is lower in “Antibody bound (% of highest)” value: 35% for the first, 30% for the second.

Going from B3 to B4, the “Antibody bound (% of highest)” value falls from 32% to 27%.

B5 was tested, and the “Antibody bound (% of highest)” value was 37%.

molecular target: T3, human APLP2 extracellular domain expressed with a C-terminal myc-myc-hexahistidine tag (human, UniProt Q06481 32-692); experiment: SPR, antibody captured, hAPLP2-MMH injected, 25 C
T3 construct: also called hAPLP2-MMH; APLP2.mmh
T3 sequence (Q06481 other isoform, or with tags, fused parts or gaps): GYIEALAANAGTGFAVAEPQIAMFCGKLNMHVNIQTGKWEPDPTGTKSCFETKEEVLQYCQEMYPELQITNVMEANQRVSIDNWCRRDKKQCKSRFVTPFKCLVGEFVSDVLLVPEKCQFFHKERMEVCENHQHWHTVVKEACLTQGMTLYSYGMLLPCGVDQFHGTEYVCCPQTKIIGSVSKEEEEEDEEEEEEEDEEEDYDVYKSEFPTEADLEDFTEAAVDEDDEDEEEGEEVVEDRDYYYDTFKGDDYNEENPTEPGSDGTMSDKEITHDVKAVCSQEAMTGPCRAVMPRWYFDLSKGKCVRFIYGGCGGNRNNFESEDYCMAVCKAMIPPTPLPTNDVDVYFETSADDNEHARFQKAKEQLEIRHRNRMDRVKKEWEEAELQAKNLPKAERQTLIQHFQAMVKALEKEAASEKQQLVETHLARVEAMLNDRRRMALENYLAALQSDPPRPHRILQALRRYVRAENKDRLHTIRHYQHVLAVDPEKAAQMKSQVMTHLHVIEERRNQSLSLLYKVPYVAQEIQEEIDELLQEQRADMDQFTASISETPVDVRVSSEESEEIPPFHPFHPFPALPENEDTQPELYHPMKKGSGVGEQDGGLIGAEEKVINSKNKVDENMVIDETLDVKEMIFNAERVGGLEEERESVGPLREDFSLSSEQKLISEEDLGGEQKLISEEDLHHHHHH

Going from B1 to B2, the “90 nM hAPLP2-MMH Bound (RU)” value rises from 13.4 RU to 30.2 RU.

For B3, the “90 nM hAPLP2-MMH Bound (RU)” value was 30.6 RU.

Going from B1 to B2, the Kd rises from 8.5 nM to 15.6 nM (1.8-fold). The first binds more tightly here.

In the case of B3, the Kd is reported as 14.6 nM.

B1 was tested, and the koff was 0.000782 s⁻¹.

B1 gave a kon of 92000 M⁻¹ s⁻¹.

First: B1
Second: B2
The t½ of the first is 2.2-fold higher: 14.8 min for the first, 6.8 min for the second.

Binder B3 has a t½ of 8.7 min.

molecular target: T3, human APLP2 extracellular domain …; experiment: SPR, antibody captured, hAPLP2-MMH injected, 25 C (second row for this antibody)

B2 and B3 are within 1.5-fold of each other in Kd: 16.6 nM for the first, 17.2 nM for the second.

B2 and B3 are within 1.5-fold of each other in t½: 7.7 min for the first, 6.7 min for the second.

molecular target: T1, human HER2 expressed on cells (cancer …); experiment: imaging, Alexa647-labelled antibody on MDA-MB-361 cells at 4 C; competitor hHER2-MMH
Procedure: as §5

With B1 the “Bispecific antibody signal (Fold over blank)” value was 3 fold over blank.

molecular target: T1, human HER2 expressed on cells (cancer …); experiment: imaging, Alexa647-labelled antibody 10 ug/mL at 4 C on T47D cells; signal per nuclei, normalised to the highest cell line
Procedure: as §2, §3

Going from B1 to B2, the “Antibody bound (% of highest)” value falls from 7% to 5%.

First: B3
Second: B4
The “Antibody bound (% of highest)” value of the first is higher: 9% for the first, 5% for the second.

B5 was tested, and the “Antibody bound (% of highest)” value was 8%.

molecular target: T3, human APLP2 extracellular domain …; experiment: SPR (Biacore 4000), antibody captured on anti-human Fc, hAPLP2-MMH injected, 37 C
Procedure: as §4

Going from B1 to B2, the “100 nM hAPLP2-MMH Bound (RU)” value rises from 13 RU to 49 RU.

Compared with B3, B4 is lower in “100 nM hAPLP2-MMH Bound (RU)” value: 48 RU for the first, 30 RU for the second.

With B5 the “100 nM hAPLP2-MMH Bound (RU)” value was 24 RU.

First: B1
Second: B2
The Kd of the first is 1.9-fold higher: 281 nM for the first, 145 nM for the second.

Going from B3 to B4, the Kd rises from 183 nM to 844 nM (4.6-fold).

Binder B5 has a Kd of 976 nM.

With B1 the koff was 0.00977 s⁻¹.

B1 gave a kon of 34700 M⁻¹ s⁻¹.

B1 and B2 are the same in t½: 1.2 min for the first, 1.2 min for the second.

Compared with B3, B4 is 37-fold lower in t½: 1.1 min for the first, 0.03 min for the second.

With B5 the t½ was 0.04 min.

molecular target: T1, human HER2 expressed on cells (cancer …); experiment: imaging, Alexa647-labelled antibody on MDA-MB-361 cells at 4 C; No Block
Procedure: as §5

In the case of B1, the “Bispecific antibody signal (Fold over blank)” value is reported as 14 fold over blank.

molecular target: T1, human HER2 expressed on cells (cancer …); experiment: imaging, Alexa647-labelled antibody 10 ug/mL at 4 C on SKBR3 cells; signal per nuclei, normalised to the highest cell line
Procedure: as §1, §2, §3

B1 and B2 are the same in “Antibody bound (% of highest)” value: 100% for the first, 100% for the second.

B3 and B4 are the same in “Antibody bound (% of highest)” value: 100% for the first, 100% for the second.

For B5, the “Antibody bound (% of highest)” value was 100%.
